In patent US20160106830A1 one finds binding score (% of positive control peptide signal) data, which are given here for two molecules.

For assay [1], the target named is HLA-DR7 (α1*01:01; β1*07:01) (human). The assay is described as follows: ProImmune REVEAL class II MHC-peptide binding assay.
The target of assay [2] is HLA-DR4 (α1*01:01; β1*04:01) (human). The description is as above.

Regarding VGPLTVNEKRRLKLIMPARFYPNVTKYLPLDKGIK (modifications not checked) [NP113], the binding score (% of positive control peptide signal) stood at 99.2% in assay [1] and 33.5% in assay [2].

Take PEHVVNHYFQTRHYLHTLWKAGILYKRETTRSASF (modifications not checked) [NP151]: the binding score (% of positive control peptide signal) in assay [1] worked out at 19.4%; in assay [2] it was 74.4%.
